Among the data in patent US20260285971 (published 2026) are EC50 values, retold here.

Numbering of substitutions follows the chain as printed.

T1: human GPRC5D (human)
T1 chain: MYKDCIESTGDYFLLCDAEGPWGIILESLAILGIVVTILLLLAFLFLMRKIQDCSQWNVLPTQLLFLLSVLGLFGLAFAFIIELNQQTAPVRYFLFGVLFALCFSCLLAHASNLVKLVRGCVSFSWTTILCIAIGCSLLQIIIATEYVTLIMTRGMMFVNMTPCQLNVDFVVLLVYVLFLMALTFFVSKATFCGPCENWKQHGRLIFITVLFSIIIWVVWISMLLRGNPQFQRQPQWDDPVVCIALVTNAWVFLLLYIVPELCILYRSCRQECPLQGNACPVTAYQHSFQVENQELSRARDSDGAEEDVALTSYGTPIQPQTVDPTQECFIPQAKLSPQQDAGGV

B1: JNJ7564-hIgG1 (antibody, V domains shown)
VH: QVQLVQSGAEVKKPGASVKVSCKASGYSFTGYTMNWVRQAPGQGLEWMGLINPYNSDTNYAQKLQGRVTMTTDTSTSTAYMELRSLRSDDTAVYYCARVALRVALDYWGQGTLVTVSS
VL: DIQMTQSPSSLSASVGDRVTITCKASQNVATHVGWYQQKPGKAPKRLIYSASYRYSGVPSRFSGSGSGTEFTLTISNLQPEDFATYYCQQYNRYPYTFGQGTKLEIK
B2: 5F11-hIgG1 (antibody, V domains shown)
VH: EVQLVESGGGLVQPGRSLKLSCAASGFSFSNYGMAWVRQAATKGLEWVASISTGGGNTYYRDSVKGRFIVSRDNAKNTQYLQMDSLRSEDTATYYCTRHDRGGLYWGQGVMVTVSS
VL: DIVMTQAPLSVSVTPGESASISCRSSKSLLHSNGITYVYWYFQKPGKSPQVLIYRMSNLASGVPDRFSGSGSETDFTLKISRVEAEDVGIYHCGQLLENPYTFGAGTELELK
B3: MCARH109-scFv-huFc (antibody, V domains shown)
VH: QVQLVESGGGLVHPGGSLRLSCAASGFTFRSHSMNWVRQAPGKGLEWVSSISSDSTYTYYADSVKGRFTISRDNAKNSLYLQMNSLRAEDTAVYYCARSGGQWKYYDYWGQGTLVTVSS
VL: SSELTQDPAVSVALGQTVRITCQGDSLRSYYASWYQQKPGQAPVLVIYGKNNRPSGIPDRFSGSSSGNTASLTITGAQAEDEADYYCNSRDSSGNPPVVFGGGTKLTVL
B4: HAB06-H5 (designed binder)
chain: EVQLVESGGGLVQPGGSLRLSCAASGFTFSSAWMYWFRQAPGKGLEWVSHIDPRGGSTYYADSVKGRFTISRDNAKNTLYLQMNSLRAEDTAVYYCAKDLRGLGRGQGTQVTVSS
B5: HAB06-H1 (designed binder)
chain: B4 chain with A75S, Q110M
B6: Lab06-huFc (designed binder)
chain: B4 chain with E1Q, A23T, N84R, R87K, A88S
B7: Lab05-huFc (antibody, V domains shown)
VH: QVQLVESGGGLVQPGGSLRLSCAASGILVSAYVMAWYRQPPGKQRDLVARLSTDGRTTYADSVKGRFTISKDNAKSTLYLQMNTLKSEDTAVYYCYAERSRGHWGQGTQVTVSS
B8: HAB05-H2 (antibody, V domains shown)
VH: B7 VH with Q1E, P40A, D46V, A49S, S76N, T84S, K86R, S87A, Q109M
B9: HAB05-H3 (antibody, V domains shown)
VH: B7 VH with Q1E, P40A, D46V, A49S, T84S, K86R, S87A, Q109M
B10: HAB01-H1 (antibody, V domains shown)
VH: EVQLVESGGGLVQPGGSLRLSCAASGYAGGIAYMAWFRQAPGKGREGVANIATSGTTYYVDSVKGRFTISRDGAKNSLYLQMNSLRAEDTAVYYCAAKSRLGWPGLETSQFKYWGQGTMVTVSS
B11: HAB01-H8 (antibody, V domains shown)
VH: B10 VH with N50L, Y58S, K75D, L78V
B12: HAB01-H6 (antibody, V domains shown)
VH: B10 VH with E6A, N50L, Y58S, L78V
B13: HAB01-H3 (antibody, V domains shown)
VH: B10 VH with N50L, Y58S
B14: HAB01-H7 (antibody, V domains shown)
VH: B10 VH with N50L, Y58S, V60A, L78V
B15: Lab01-huFc (antibody, V domains shown)
VH: EVQLQASGGGSVQAGGSRRLSCVASGYAGGIAYMAWFRQTPGKGREGVALIATSGTTSYANSVKGRFTIFRDGADNTVYLEMSSLKPEDTATYYCAAKSRLGWPGLETSQFKYWGQGTQVTVSS

What is called EC50 is the concentration at which the effect is half-maximal. A high value points to a need for much substance.

The target of one test is T1, human GPRC5D. Put plainly: FACS NCI-H929.
B1: the EC50 turned out to be 0.0256 µM.

Turning to B2, a half-maximal response (EC50) required 0.0029 µM.

A further test deals with T1, human GPRC5D. Put plainly: FACS CHOK1-human GPRC5D.
B3 gave an EC50 of 0.000286 µM.

In turn, B4 displayed an EC50 of 0.000241 µM.

In turn, B5 yielded an EC50 of 0.000324 µM.

As to B6, a half-maximal effect (EC50) was put at 0.00022 µM.

B7: the EC50 was found to be 0.000279 µM.

B8 displayed an EC50 of 0.000514 µM.

For B9, the EC50 stood at 0.000249 µM.

The target of another test is T1, human GPRC5D. Put plainly: FACS molp-8.
B1 registered an EC50 of 0.0269 µM.

B2: the response was half-maximal at 0.00292 µM (EC50).

On to B10, for which the EC50 was 0.0033 µM.

B11 registered an EC50 of 0.00124 µM.

B12 came in with an EC50 of 0.000755 µM.

In turn, B13 had an EC50 of 0.00137 µM.

Molecule B14 registered an EC50 of 0.00076 µM.

For the molecule B15, the EC50 came out at 0.000625 µM.

The target of the next test is T1, human GPRC5D. Put plainly: FACS molp-8. This is another data set of the same source.
Regarding B1, the EC50 stood at 0.0459 µM.

B2 displayed an EC50 of 0.0126 µM.

A further test addresses T1, human GPRC5D. Put plainly: FACS RPMI-8226.
Molecule B1 yielded an EC50 of 0.0734 µM.

B2 returned an EC50 of 0.00707 µM.

The target in a further test is T1, human GPRC5D. Put plainly: ELISA.
B1 gave an EC50 of 0.028 nM.

Molecule B2 displayed an EC50 of 0.0295 nM.

The next test has as its target T1, human GPRC5D. Put plainly: ELISA. The source holds these as a separate data set. A general note: ELISA stands for enzyme-linked immunosorbent assay.
On to B1, for which the EC50 is 0.0559 nM.

B2 came in with an EC50 of 0.0659 nM.

The target of another test is T1, human GPRC5D. Put plainly: FACS RPMI-8226. This is another data set of the same source.
In turn, B4 returned an EC50 of 0.000387 µM.

The molecule B5 had an EC50 of 0.000406 µM.

The molecule B6 showed an EC50 of 0.000261 µM.

Regarding B7, the EC50 was 0.0316 µM.

As for B8, the EC50 was 0.000141 µM.

B9 displayed an EC50 of 0.00012 µM.

Another test concerns the target T1, human GPRC5D. Put plainly: FACS NCI-H929. The source holds these as a separate data set.
The molecule B1 displayed an EC50 of 0.00988 µM.

For the molecule B2, the EC50 turned out to be 0.00269 µM.

Another test concerns the target T1, human GPRC5D. Put plainly: FACS NCI-H929. This is another data set of the same source.
B1 had an EC50 of 0.0179 µM.

Take B2: a half-maximal effect (EC50) was put at 0.00305 µM.

B10: the EC50 stood at 0.00163 µM.

The molecule B11 had an EC50 of 0.00141 µM.

B12: it took 0.000666 µM to reach a half-maximal effect (EC50).

B13 had an EC50 of 0.00102 µM.

B14 gave an EC50 of 0.000916 µM.

As to B15, it took 0.000653 µM to reach a half-maximal effect (EC50).

In the next test the target is T1, human GPRC5D. Put plainly: FACS NCI-H929. The source holds these as a separate data set.
In turn, B1 came in with an EC50 of 0.00697 µM.

Regarding B2, the response was half-maximal at 0.00196 µM (EC50).

The target of a further test is T1, human GPRC5D. Put plainly: FACS molp-8. The source holds these as a separate data set.
As to B1, a half-maximal effect (EC50) was put at 0.0344 µM.

On to B2, for which the response was half-maximal at 0.00368 µM (EC50).

For another test, the target named is T1, human GPRC5D. Put plainly: FACS RPMI-8226. The source holds these as a separate data set.
Consider B1, for which the EC50 is about 635 µM.

The molecule B2 came in with an EC50 of 0.0121 µM.

The next test deals with T1, human GPRC5D. Put plainly: ELISA. This is another data set of the same source.
Regarding B1, a half-maximal response (EC50) required 0.0211 nM.

On to B2, for which the EC50 was determined as 0.0371 nM.

The target in a further test is T1, human GPRC5D. Put plainly: FACS molp-8. The source holds these as a separate data set.
Take B1: the EC50 came out at 0.0413 µM.

In turn, B2 had an EC50 of 0.00564 µM.

The target in another test is T1, human GPRC5D. Put plainly: ELISA. The source holds these as a separate data set.
Take B1: the response was half-maximal at 0.0379 nM (EC50).

For B2, the midpoint of the response, the EC50, lay at 0.0498 nM.

B10 returned an EC50 of 0.023 nM.

Molecule B11 came in with an EC50 of 0.0336 nM.

In the case of B12, the response was half-maximal at 0.0178 nM (EC50).

On to B13, for which the EC50 was determined as 0.0259 nM.

B14 returned an EC50 of 0.0264 nM.

Regarding B15, the EC50 came out at 0.0182 nM.

For a further test, the target named is T1, human GPRC5D. Put plainly: FACS RPMI-8226. This is another data set of the same source.
B1 returned an EC50 of about 1360 µM.

Take B2: the midpoint of the response, the EC50, lay at 0.0187 µM.

Another test concerns the target T1, human GPRC5D. Put plainly: FACS molp-8. The source holds these as a separate data set.
Molecule B3 had an EC50 of 3.23 nM.

As to B4, the EC50 amounted to 0.178 nM.

With B5, a half-maximal effect (EC50) was put at 0.14 nM.

With B6, the EC50 was 0.132 nM.

With B7, a half-maximal response (EC50) required 0.0616 nM.

As to B8, the EC50 turned out to be 0.0839 nM.

The molecule B9 came in with an EC50 of 0.0433 nM.

The target in a further test is T1, human GPRC5D. Put plainly: FACS NCI-H929. The source holds these as a separate data set.
Consider B3, for which the midpoint of the response, the EC50, lay at 2.45 nM.

B4 returned an EC50 of 0.38 nM.

B5 yielded an EC50 of 0.166 nM.

In the case of B6, the midpoint of the response, the EC50, lay at 0.273 nM.

As to B7, a half-maximal effect (EC50) was put at 0.111 nM.

B8 yielded an EC50 of 0.202 nM.

The molecule B9 showed a 50% effective concentration (EC50) of 0.0861 nM.

Another test concerns the target T1, human GPRC5D. Put plainly: FACS RPMI-8226. This is another data set of the same source.
On to B1, for which the EC50 was about 5.46 µM.

In turn, B2 registered an EC50 of 0.0265 µM.

For the molecule B10, the response was half-maximal at 0.103 µM (EC50).

B11 showed an EC50 of 0.00177 µM.

B12 showed an EC50 of 0.0257 µM.

In turn, B13 showed an EC50 of 0.036 µM.

With B14, the EC50 came out at 0.0037 µM.

On to B15, for which it took 0.00208 µM to reach a half-maximal effect (EC50).
